Here are results for five molecules from patent US20260232734A1 (published 2026).

The target in test [1] is T1, KRAS G12D peptide on HLA-A*11:01 (human).
T1 peptide: VVVGADGVGK
In words: cytokine release.

In test [2] the target is T2, KRAS G12D peptide on HLA-A*11:01 (human).
T2 peptide: VVGADGVGK
Put plainly: cytokine release.

Test [3] has as its target T1, KRAS G12D peptide on HLA-A*11:01. In words: killing.
Test [4] addresses T2, KRAS G12D peptide on HLA-A*11:01. Put plainly: killing.
For test [5], the target named is T3, KRAS wild type peptide on HLA-A*11:01 (human).
T3 peptide: VVVGAGGVGK
In words: killing.

Test [6] deals with T4, KRAS wild type peptide on HLA-A*11:01 (human).
T4 peptide: VVGAGGVGK
In words: killing.

Test [7] deals with T1, KRAS G12D peptide on HLA-A*11:01. Put plainly: activation reporter or marker.
In test [8] the target is T3, KRAS wild type peptide on HLA-A*11:01. Put plainly: activation reporter or marker.
The target of test [9] is KRAS G12D neoantigen endogenously presented by HLA A*11:01 on KRAS-p.G12D tumor or transfected cell lines (human). In words: cell-based or functional assay.

B1: PD6_KRASmut_22 (TCR, V domains shown)
Valpha: AQTVTQSQPEMSVQEAETVTLSCTYDTSESDYYLFWYKQPPSRQMILVIRQEAYKQQNATENRFSVNFQKAAKSFSLKISDSQLGDAAMYFCAYYSGGGADGLTFGKGTHLIIQP
Vbeta: SAVISQKPSRDICQRGTSLTIQCQVDSQVTMMFWYRQQPGQSLTLIATANQGSEATYESGFVIDKFPISRPNLTFSTLTVSNMSPEDSSIYLCSVTWAGGWSYGYTFGSGTRLTVV
For B1, the binding result in test [1] and in [2] was “recognises” in each case.

B2: EE209_2 TCR (TCR, V domains shown)
Valpha: ILNVEQSPQSLHVQEGDSTNFTCSFPSSNFYALHWYRWETAKSPEALFVMTLNGDEKKKGRISATLNTKEGYSYLYIKGSQPEDSATYLCAFLPGYSTLTFGKGTMLLVSP
Vbeta: DAGITQSPRYKITETGRQVTLMCHQTWSHSYMFWYRQDLGHGLRLIYYSAAADITDKGEVPDGYVVSRSKTENFPLTLESATRSQTSVYFCASSVGRGGTEAFFGQGTRLTVV
In the case of B2, the binding result is recorded as “recognises” in test [3], “recognises” in test [4], “no recognition” in test [5] and “no recognition” in test [6].

B3: EE208_KRAS_1 (TCR, V domains shown)
Valpha: GNSVTQMEGPVTLSEEAFLTINCTYTATGYPSLFWYVQYPGEGLQLLLKATKADDKGSNKGFEATYRKETTSFHLEKGSVQVSDSAVYFCALSDGAGGFKTIFGAGTRLFVKA
Vbeta: EADIYQTPRYLVIGTGKKITLECSQTMGHDKMYWYQQDPGMELHLIHYSYGVNSTEKGDLSSESTVSRIRTEHFPLTLESARPSHTSQYLCASSESLYNEQFFGPGTRLTVL
With B3, the binding result is “recognises” in [7] and “no recognition” in test [8].

B4: EE184_KRAS_8a (TCR, V domains shown)
Valpha: AQTVTQSQPEMSVQEAETVTLSCTYDTSESDYYLFWYKQPPSRQMILVIRQEAYKQQNATENRFSVNFQKAAKSFSLKISDSQLGDAAMYFCAYKKYNDMRFGAGTRLTVKP
Vbeta: DGGITQSPKYLFRKEGQNVTLSCEQNLNHDAMYWYRQDPGQGLRLIYYSQIVNDFQKGDIAEGYSVSREKKESFPLTVTSAQKNPTAFYLCASSTGAGAFRTEAFFGQGTRLTVV
As to B4, the binding result in test [3] was “recognises”; in [4], “recognises”; in test [8] it was “no recognition”.

B5: EE209_2 TCR (SEQ ID NOs: 12 and 13; beta chain using TRBC2-201) (TCR)
TCR alpha: ILNVEQSPQSLHVQEGDSTNFTCSFPSSNFYALHWYRWETAKSPEALFVMTLNGDEKKKGRISATLNTKEGYSYLYIKGSQPEDSATYLCAFLPGYSTLTFGKGTMLLVSPDIQNPDPAVYQLRDSKSSDKSVCLFTDFDSQTNVSQSKDSDVYITDKTVLDMRSMDFKSNSAVAWSNKSDFACANAFNNSIIPEDTFFPSPESSCDVKLVEKSFETDTNLNFQNLSVIGFRILLLKVAGFNLLMTLRLWSS
TCR beta: DAGITQSPRYKITETGRQVTLMCHQTWSHSYMFWYRQDLGHGLRLIYYSAAADITDKGEVPDGYVVSRSKTENFPLTLESATRSQTSVYFCASSVGRGGTEAFFGQGTRLTVVEDLKNVFPPKVAVFEPSEAEISHTQKATLVCLATGFYPDHVELSWWVNGKEVHSGVSTDPQPLKEQPALNDSRYCLSSRLRVSATFWQNPRNHFRCQVQFYGLSENDEWTQDRAKPVTQIVSAEAWGRADCGFTSESYQQGVLSATILYEILLGKATLYAVLVSALVLMAMVKRKDSRG
With B5, in test [9], the CD137 upregulation was 7 of 7 lines, the IFNg production is 5 of 7 lines, the granzyme B production was 6 of 7 lines and the killing activity (impedance assay) is 5 of 7 lines.
